Data: the supplement of paper PMC10567573
± gives the standard deviation.

Assay: protein stability index of a GFP-peptide fusion (GPS, HEK-293T) (PSI 1-6); higher = more stable
[1] = treatment: DMSO, c terminus: a fixed tail appended
[2] = treatment: MLN4924 1 uM, 8 h, c terminus: a fixed tail appended
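Note: 24-mer peptide tiles fused after GFP, lentivirally expressed, FACS-sorted into six equal bins by GFP/DsRed ratio, decoded by Illumina sequencing, PSI is the read-weighted mean bin number.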

Sequence: SVNEVDFEGRTPMHVACQHGQENI [RIPK4]
- protein stability index [1]: 4.31 ± 0.27
- protein stability index [2]: 4.57 ± 0.076

Sequence: LALGRERLGEIHTLPLPASLKAYL [SPSB1]
- protein stability index [1]: 2.24 ± 0.38
- protein stability index [2]: 2.15 ± 0.19

Sequence: GSRPACQLQVPTLRQQCAQVLRNN [ELOA2]
- protein stability index [1]: 4.43 ± 0.14
- protein stability index [2]: 4.51 ± 0.3

Sequence: NGDLSRSLSPSPLGSSAASTALER [FCHO1]
- protein stability index [1]: 4.78 ± 0.22
- protein stability index [2]: 4.83 ± 0.37

Sequence: FGERRIPRGRRISVICRSLPEGMG [ALKBH7]
- protein stability index [1]: 2.82 ± 0.29
- protein stability index [2]: 2.87 ± 0.26

Sequence: SQKDLENDPSVNSQAQETTIIASN [TOR1AIP2]
- protein stability index [1]: 5.37 ± 0.16
- protein stability index [2]: 5.28 ± 0.29

Sequence: RWDLSPEQIKTRTEELIVQTKQVY [NLN]
- protein stability index [1]: 3.44 ± 0.32
- protein stability index [2]: 3.8 ± 0.088

Sequence: VLKTRFSYAFPKEFPYRMNHILEC [CCNC]
- protein stability index [1]: 2.59 ± 0.58
- protein stability index [2]: 2.2 ± 0.24

Sequence: NAGLSSTAGLLREQVAQLKQKVMT [JUNB]
- protein stability index [1]: 3.42 ± 0.24
- protein stability index [2]: 3.39 ± 0.42

Sequence: RLRHYLGSRYDARRGVSDWDLRMK [DNAAF3]
- protein stability index [1]: 2.19 ± 0.21
- protein stability index [2]: 2.33 ± 0.33

Sequence: VPKVGQRFNRIGLPPKVGSFQLFV [PI4K2A]
- protein stability index [1]: 2.31 ± 0.78
- protein stability index [2]: 2.34 ± 0.44

Sequence: PADPTGNLGGGDPKGWRQLAQEAE [OAS1]
- protein stability index [1]: 5.17 ± 0.19
- protein stability index [2]: 4.97 ± 0.18

Sequence: IERSSSFSSITDSTMSLNIITVTL [DVL3]
- protein stability index [1]: 2.8 ± 0.42
- protein stability index [2]: 2.85 ± 0.23

Sequence: HCHIEESEHVLKKAHKYSELIILY [VPS39]
- protein stability index [1]: 2.21 ± 0.33
- protein stability index [2]: 2.12 ± 0.3

Sequence: RLFQQSCPTGLVFSNSCKCCTWN [CHIT1]
- protein stability index (treatment: DMSO, c terminus: native): 2.37 ± 0.44
- protein stability index (treatment: MLN4924 1 uM, 8 h, c terminus: native): 2.37 ± 0.28

Sequence: KLKLTNNHLDPFGHIILNSMHKYQ [TBX5]
- protein stability index [1]: 2.26 ± 0.37
- protein stability index [2]: 2.34 ± 0.25

Sequence: GDGKSKKKQAGRPKGSKGKEKDSP [RBBP5]
- protein stability index [1]: 5.39 ± 0.29
- protein stability index [2]: 5.34 ± 0.11

Sequence: PAYKVSGDKNEEQVLNAIEAYTEH [ZER1]
- protein stability index [1]: 5.06 ± 0.17
- protein stability index [2]: 5.02 ± 0.17

Sequence: DPELKNLFDMCGISEAQLKDRETS [WASL]
- protein stability index [1]: 4.72 ± 0.063
- protein stability index [2]: 4.68 ± 0.21

Sequence: EQPRLEFLMRKCGWFVRELRVEFA [FBXO33]
- protein stability index [1]: 2.64 ± 0.34
- protein stability index [2]: 2.12 ± 0.24

Sequence: WVYKNKLIFFGGYGYLPEDKVLGT [KLHDC2]
- protein stability index [1]: 2.55 ± 1.1
- protein stability index [2]: 2.88 ± 1.4

Sequence: DDGSQDPEVLDRESRDRPSCAPSA [PWWP2B]
- protein stability index [1]: 5.43 ± 0.17
- protein stability index [2]: 5.21 ± 0.13

Sequence: YCNFNKYIPRRLEEAAMQKCLVTE [RSAD1]
- protein stability index [1]: 2.32 ± 0.41
- protein stability index [2]: 2.51 ± 0.38

Sequence: IRQLQEQHYQQYMQQLYQVQLAQQ [ACBD3]
- protein stability index [1]: 2.23 ± 0.29
- protein stability index [2]: 2.43 ± 0.24

Sequence: LVWIRGPGFGCKAVRCASGRCTVR [SDE2]
- protein stability index [1]: 2.37 ± 0.87
- protein stability index [2]: 2.36 ± 0.42

Sequence: SLRDSGYFYDPIERDIEIGFLPWL [RSPH3]
- protein stability index [1]: 2.28 ± 0.49
- protein stability index [2]: 2.37 ± 0.47

Sequence: MAQYKGAASEAGRAMHLMKKREKQ [FAM50A]
- protein stability index [1]: 4.7 ± 0.34
- protein stability index [2]: 4.47 ± 0.4

Sequence: EEEMRSHYVAQTGILWLLMNNCFL [GAGE1]
- protein stability index [1]: 3.15 ± 0.36
- protein stability index [2]: 3.2 ± 0.35

Sequence: HQTQLLYQASAMMVESRYALLIVD [RAD51]
- protein stability index [1]: 3.17 ± 0.74
- protein stability index [2]: 2.8 ± 0.66

Sequence: EAIKGLNGQKPLGAAEPITVKFAN [ELAVL3]
- protein stability index [1]: 3.94 ± 0.22
- protein stability index [2]: 4.06 ± 0.28

Sequence: LATTEKKTEQQRRREKAVHRLRVQ [NOP53]
- protein stability index [1]: 4.34 ± 0.19
- protein stability index [2]: 4.37 ± 0.17

Sequence: ILIREAQNQPIDKARKTYERLVAQ [CSTF3]
- protein stability index [1]: 2.83 ± 0.2
- protein stability index [2]: 2.82 ± 0.11
